pKd, pKi: −log10 of the molar value.
Key:
[1] = molecular target: soluble extracellular domain of human dipeptidyl peptidase IV (sDPP-IV; residues 31-766), glycosylated (human) (UniProt P27487); assay: enzyme inhibition, fluorogenic substrate Ala-Pro-7-amido-4-trifluoromethylcoumarin, assay buffer, 25° C., glycosylated sDPP-IV
[2] = molecular target: DPP-IV as immobilized on the CM5 Biacore sensor (human) (UniProt P27487); assay: SPR (Biacore), DPP-IV immobilized on CM5, Diprotin A in Hepes running buffer
DPP-IV as immobilized on the CM5 Biacore sensor (human), sequence (P27487 31-766 limits assumed): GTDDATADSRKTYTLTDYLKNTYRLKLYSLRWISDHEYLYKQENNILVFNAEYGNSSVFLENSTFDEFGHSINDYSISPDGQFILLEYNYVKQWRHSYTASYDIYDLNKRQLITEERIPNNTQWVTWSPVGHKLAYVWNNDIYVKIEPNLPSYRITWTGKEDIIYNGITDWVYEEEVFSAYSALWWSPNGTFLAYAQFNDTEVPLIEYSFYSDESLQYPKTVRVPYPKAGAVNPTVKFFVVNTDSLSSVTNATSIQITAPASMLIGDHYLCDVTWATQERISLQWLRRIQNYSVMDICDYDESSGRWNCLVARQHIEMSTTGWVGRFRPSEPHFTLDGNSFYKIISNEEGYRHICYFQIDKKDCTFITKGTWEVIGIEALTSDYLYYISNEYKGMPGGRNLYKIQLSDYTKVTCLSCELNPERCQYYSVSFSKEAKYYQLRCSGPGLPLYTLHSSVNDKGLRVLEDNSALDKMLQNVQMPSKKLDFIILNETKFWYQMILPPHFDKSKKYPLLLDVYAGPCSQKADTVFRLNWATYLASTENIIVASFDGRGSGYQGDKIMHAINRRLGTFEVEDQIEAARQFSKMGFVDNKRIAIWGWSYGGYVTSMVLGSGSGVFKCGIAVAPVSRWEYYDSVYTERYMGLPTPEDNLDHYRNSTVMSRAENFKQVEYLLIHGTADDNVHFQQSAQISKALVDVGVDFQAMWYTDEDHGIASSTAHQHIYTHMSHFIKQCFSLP

soluble extracellular domain of human dipeptidyl peptidase IV (sDPP-IV; residues 31-766), glycosylated (human), sequence (P27487 31-766 limits assumed): as above

- pKi [1]: 5.33
- pKd [2]: 5.42
Substance: Diprotin A (Ile-Pro-Ile) (peptide)
